In the Human Domainome abundance scans (Beltran et al. 2025):
± gives the uncertainty stated by the source.

B1: POU domain, class 2, transcription factor 1, residues 285 to 354; numbered along this chain, P14859 (parent)
chain: LEELEQFAKTFKQRRIKLGFTQGDVGLAMGKLYGNDFSQTTISRFEALNLSFKNMCKLKPLLEKWLNDAE

Variants of: B1
Experiment: abundance fitness (aPCA) (normalised: wild type 0, dead -1); higher = more abundant; growth selection in yeast, the domain comes from the species named
Conditions: Homo sapiens

LEELEQFAKTFKQRRIKLGFTQGDVGLAMCKLYGNDFSQTTISRFEALNLSFKNMCKLKPLLEKWLNDAE and LEELEQFAKTFKQRRIKLGFTQGDVGLAMAKLYGNDFSQTTISRFEALNLSFKNMCKLKPLLEKWLNDAE are within error of each other in abundance fitness: 0 ± 0.025 for the first, 0.014 ± 0.025 for the second.

LEELEQFAKTFKQRRIKLGFTQGDVGLAMDKLYGNDFSQTTISRFEALNLSFKNMCKLKPLLEKWLNDAE and LEELEQFAKTFKQRRIKLGFTQGDVGLAMEKLYGNDFSQTTISRFEALNLSFKNMCKLKPLLEKWLNDAE are within error of each other in abundance fitness: -0.087 ± 0.059 for the first, -0.025 ± 0.053 for the second.

Compared with LEELEQFAKTFKQRRIKLGFTQGDVGLAAGKLYGNDFSQTTISRFEALNLSFKNMCKLKPLLEKWLNDAE, LEELEQFAKTFKQRRIKLGFTQGDVGLAQGKLYGNDFSQTTISRFEALNLSFKNMCKLKPLLEKWLNDAE is lower in abundance fitness: -0.145 ± 0.022 for the first, -0.497 ± 0.045 for the second.

Compared with LEELEQFAKTFKQRRIKLGFTQGDVGLAGGKLYGNDFSQTTISRFEALNLSFKNMCKLKPLLEKWLNDAE, LEELEQFAKTFKQRRIKLGFTQGDVGLASGKLYGNDFSQTTISRFEALNLSFKNMCKLKPLLEKWLNDAE is lower in abundance fitness: -0.377 ± 0.041 for the first, -0.49 ± 0.026 for the second.

LEELEQFAKTFKQRRIKLGFTQGDVGLAHGKLYGNDFSQTTISRFEALNLSFKNMCKLKPLLEKWLNDAE and LEELEQFAKTFKQRRIKLGFTQGDVGLAWGKLYGNDFSQTTISRFEALNLSFKNMCKLKPLLEKWLNDAE are within error of each other in abundance fitness: -0.689 ± 0.059 for the first, -0.625 ± 0.089 for the second.

First: LEELEQFAKTFKQRRIKLGFTQGDVGLADGKLYGNDFSQTTISRFEALNLSFKNMCKLKPLLEKWLNDAE
Second: LEELEQFAKTFKQRRIKLGFTQGDVGLALGKLYGNDFSQTTISRFEALNLSFKNMCKLKPLLEKWLNDAE
The abundance fitness of the first is lower: -0.727 ± 0.07 for the first, -0.016 ± 0.019 for the second.

Going from LEELEQFAKTFKQRRIKLGFTQGDVGLAIGKLYGNDFSQTTISRFEALNLSFKNMCKLKPLLEKWLNDAE to LEELEQFAKTFKQRRIKLGFTQGDVGLARGKLYGNDFSQTTISRFEALNLSFKNMCKLKPLLEKWLNDAE, the abundance fitness falls from -0.006 ± 0.042 to -0.998 ± 0.092.

First: LEELEQFAKTFKQRRIKLGFTQGDVGLAVGKLYGNDFSQTTISRFEALNLSFKNMCKLKPLLEKWLNDAE
Second: LEELEQFAKTFKQRRIKLGFTQGDVGLAEGKLYGNDFSQTTISRFEALNLSFKNMCKLKPLLEKWLNDAE
The abundance fitness of the first is higher: 0.031 ± 0.023 for the first, -0.808 ± 0.085 for the second.

First: LEELEQFAKTFKQRRIKLGFTQGDVGLACGKLYGNDFSQTTISRFEALNLSFKNMCKLKPLLEKWLNDAE
Second: LEELEQFAKTFKQRRIKLGFTQGDVGLAPGKLYGNDFSQTTISRFEALNLSFKNMCKLKPLLEKWLNDAE
The abundance fitness of the first is higher: -0.092 ± 0.049 for the first, -0.903 ± 0.044 for the second.

Compared with LEELEQFAKTFKQRRIKLGFTQGDVGLAFGKLYGNDFSQTTISRFEALNLSFKNMCKLKPLLEKWLNDAE, LEELEQFAKTFKQRRIKLGFTQGDVGLAKGKLYGNDFSQTTISRFEALNLSFKNMCKLKPLLEKWLNDAE is lower in abundance fitness: -0.148 ± 0.027 for the first, -0.748 ± 0.081 for the second.

Compared with LEELEQFAKTFKQRRIKLGFTQGDVGLAYGKLYGNDFSQTTISRFEALNLSFKNMCKLKPLLEKWLNDAE, LEELEQFAKTFKQRRIKLGFTQGDVGLMMGKLYGNDFSQTTISRFEALNLSFKNMCKLKPLLEKWLNDAE is higher in abundance fitness: -0.512 ± 0.057 for the first, -0.043 ± 0.024 for the second.

Going from LEELEQFAKTFKQRRIKLGFTQGDVGLPMGKLYGNDFSQTTISRFEALNLSFKNMCKLKPLLEKWLNDAE to LEELEQFAKTFKQRRIKLGFTQGDVGLQMGKLYGNDFSQTTISRFEALNLSFKNMCKLKPLLEKWLNDAE, the abundance fitness rises from -0.56 ± 0.041 to 0.048 ± 0.05.

Compared with LEELEQFAKTFKQRRIKLGFTQGDVGLLMGKLYGNDFSQTTISRFEALNLSFKNMCKLKPLLEKWLNDAE, LEELEQFAKTFKQRRIKLGFTQGDVGLFMGKLYGNDFSQTTISRFEALNLSFKNMCKLKPLLEKWLNDAE is lower in abundance fitness: -0.04 ± 0.022 for the first, -0.11 ± 0.021 for the second.

LEELEQFAKTFKQRRIKLGFTQGDVGLHMGKLYGNDFSQTTISRFEALNLSFKNMCKLKPLLEKWLNDAE and LEELEQFAKTFKQRRIKLGFTQGDVGLNMGKLYGNDFSQTTISRFEALNLSFKNMCKLKPLLEKWLNDAE are within error of each other in abundance fitness: -0.059 ± 0.04 for the first, -0.061 ± 0.03 for the second.

LEELEQFAKTFKQRRIKLGFTQGDVGLIMGKLYGNDFSQTTISRFEALNLSFKNMCKLKPLLEKWLNDAE and LEELEQFAKTFKQRRIKLGFTQGDVGLDMGKLYGNDFSQTTISRFEALNLSFKNMCKLKPLLEKWLNDAE are within error of each other in abundance fitness: -0.054 ± 0.024 for the first, -0.079 ± 0.11 for the second.

LEELEQFAKTFKQRRIKLGFTQGDVGLTMGKLYGNDFSQTTISRFEALNLSFKNMCKLKPLLEKWLNDAE and LEELEQFAKTFKQRRIKLGFTQGDVGLKMGKLYGNDFSQTTISRFEALNLSFKNMCKLKPLLEKWLNDAE are within error of each other in abundance fitness: -0.01 ± 0.024 for the first, -0.008 ± 0.033 for the second.

LEELEQFAKTFKQRRIKLGFTQGDVGLSMGKLYGNDFSQTTISRFEALNLSFKNMCKLKPLLEKWLNDAE and LEELEQFAKTFKQRRIKLGFTQGDVGLVMGKLYGNDFSQTTISRFEALNLSFKNMCKLKPLLEKWLNDAE are within error of each other in abundance fitness: -0.042 ± 0.02 for the first, -0.052 ± 0.11 for the second.

LEELEQFAKTFKQRRIKLGFTQGDVGLEMGKLYGNDFSQTTISRFEALNLSFKNMCKLKPLLEKWLNDAE and LEELEQFAKTFKQRRIKLGFTQGDVGWAMGKLYGNDFSQTTISRFEALNLSFKNMCKLKPLLEKWLNDAE are within error of each other in abundance fitness: -0.508 ± 0.43 for the first, -0.106 ± 0.041 for the second.

LEELEQFAKTFKQRRIKLGFTQGDVGTAMGKLYGNDFSQTTISRFEALNLSFKNMCKLKPLLEKWLNDAE and LEELEQFAKTFKQRRIKLGFTQGDVGVAMGKLYGNDFSQTTISRFEALNLSFKNMCKLKPLLEKWLNDAE are within error of each other in abundance fitness: -0.053 ± 0.067 for the first, 0.003 ± 0.026 for the second.

In the case of LEELEQFAKTFKQRRIKLGFTQGDVGYAMGKLYGNDFSQTTISRFEALNLSFKNMCKLKPLLEKWLNDAE, the abundance fitness is reported as -0.113 ± 0.058.
